Literature values in PMC2589311.
Like-named read-outs stand apart in the source and are kept apart here.

Columns and labels:
[1] = biological target: second IL-1 receptor, 68 kDa (RAJI cells) (Homo sapiens) (UniProt P27930)
[2] = biological target: IL-1 receptor (synovial cells) (Homo sapiens) (UniProt P14778)
[3] = biological target: IL-1 receptor (synovial cells) (Homo sapiens) (UniProt P14778); remark: listed apart in the source

Sequence of UniProt P14778 (P14778 18-569): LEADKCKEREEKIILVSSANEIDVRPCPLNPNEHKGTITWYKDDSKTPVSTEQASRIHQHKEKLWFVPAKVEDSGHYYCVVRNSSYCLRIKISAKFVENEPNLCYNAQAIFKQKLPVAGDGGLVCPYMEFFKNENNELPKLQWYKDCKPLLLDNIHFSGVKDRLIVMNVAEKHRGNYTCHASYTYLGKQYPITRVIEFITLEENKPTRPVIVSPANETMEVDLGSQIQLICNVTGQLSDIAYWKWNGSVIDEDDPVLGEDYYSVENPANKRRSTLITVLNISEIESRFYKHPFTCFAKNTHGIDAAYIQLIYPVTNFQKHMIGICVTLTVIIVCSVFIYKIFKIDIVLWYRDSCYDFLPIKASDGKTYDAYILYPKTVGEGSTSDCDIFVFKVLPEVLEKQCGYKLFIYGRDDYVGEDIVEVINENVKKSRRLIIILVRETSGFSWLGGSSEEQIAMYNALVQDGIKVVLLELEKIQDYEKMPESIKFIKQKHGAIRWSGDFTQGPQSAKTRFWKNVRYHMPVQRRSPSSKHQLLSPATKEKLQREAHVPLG
Sequence of UniProt P27930 (P27930 14-398): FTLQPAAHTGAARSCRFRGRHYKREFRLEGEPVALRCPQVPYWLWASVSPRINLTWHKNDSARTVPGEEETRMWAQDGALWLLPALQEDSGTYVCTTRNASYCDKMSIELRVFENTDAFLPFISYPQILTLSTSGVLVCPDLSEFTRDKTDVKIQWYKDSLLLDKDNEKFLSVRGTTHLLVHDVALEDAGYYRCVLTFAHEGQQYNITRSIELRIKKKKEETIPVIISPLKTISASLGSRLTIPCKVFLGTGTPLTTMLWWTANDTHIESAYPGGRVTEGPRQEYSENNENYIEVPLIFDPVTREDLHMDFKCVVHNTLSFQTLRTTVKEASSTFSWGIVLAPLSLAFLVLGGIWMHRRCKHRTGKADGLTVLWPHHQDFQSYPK

Kd [1] [nM] | Kd [2] [nM] | Kd [3] [nM] | Substance
2.2 | 0.004 | – | IL-1beta (from UniProt P01584)
– | – | 0.066 | IL-1alpha (from UniProt P01583)
